Source: patent publication US20220220215A1 (CRESCENDO BIOLOGICS, published 2022)
Positions count from the first letter of the chain named. One block for each binder: values may come before it.

Experiments:
[1] = molecular target: T1, human HVEM (R&D Systems cat no. HVM-H5258) (human, UniProt Q92956 39-202, limits assumed); assay: ELISA, plate-coated human HVEM; legend: No binding (-)
T1 sequence (looked up): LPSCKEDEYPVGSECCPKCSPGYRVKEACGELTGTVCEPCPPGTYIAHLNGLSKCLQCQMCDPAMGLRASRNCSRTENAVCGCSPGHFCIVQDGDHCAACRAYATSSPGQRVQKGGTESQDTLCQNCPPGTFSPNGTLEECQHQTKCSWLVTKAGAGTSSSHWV
Experimental: (§1) Specificity of binding for CD137 over the tumour necrosis factor receptor family members OX40, GITR (Glucocorticoid-induced TNFR-related), CD40 and HVEM was determined using an ELISA assay. Nunc Maxisorp plates were coated with 1 ug/ml human CD137-Fc recombinant protein (Acro Biosystems 41B-H5258), human GITR-Fc (R&D Systems cat no. 689-GR) human OX40-Fc (R&D Systems cat no. 3388-OX), human CD40 (R&D Systems cat no. CDO-H5253), human HVEM (R&D Systems cat no. HVM-H5258) in PBS overnight at 4° C. then washed twice with PBS. Non-specific protein interactions were blocked by incubation with 1% (w/v) skimmed milk powder (Marvel®) in PBS/0.1% Tween-20 for 1 hour at room temperature. Plates were washed twice with PBS then VH or antibody control (1 ug/ml) added for 1 hour at room temperature. Following three washes with PBS/0.1% Tween-20 a 1:1000 dilution of anti His-HRP (VH detection) or anti mouse-HRP (positive control mouse monoclonal antibody detection) was added in 1% Marvel/PBS/0.1% Tween-20. The detection antibodies were allowed to bind for 1 hour at room temperature then the plates were washed twice in PBS/0.1% Tween-20 and once in PBS. The ELISA was developed using TMB substrate and the reaction was stopped by the addition of 50 ul 0.5M H₂SO₄ solution. The absorbance at 450 nm was measured using the BMG Pherastar.

[2] = molecular target: human CD40 (R&D Systems cat no. CDO-H5253) (human, UniProt P25942 21-193, limits assumed); assay: ELISA, plate-coated human CD40; legend: No binding (-)
Experimental: as §1

[3] = molecular target: T2, Rhesus CD137-Fc tagged protein (rhesus, UniProt H9Z8K9 24-186); assay: BLI (Octet RED384), CD137-Fc on Protein G sensor, 1:1 model
T2 construct: extracellular domain; The Octet paragraph gives no catalogue number; also called rhCD137-Fc

[4] = molecular target: T3, human GITR-Fc (R&D Systems cat no. 689-GR) (human, UniProt Q9Y5U5 26-161); assay: ELISA, plate-coated human GITR-Fc; legend: No binding (-)
T3 construct: also called Glucocorticoid-induced TNFR-related
T3 sequence (looked up): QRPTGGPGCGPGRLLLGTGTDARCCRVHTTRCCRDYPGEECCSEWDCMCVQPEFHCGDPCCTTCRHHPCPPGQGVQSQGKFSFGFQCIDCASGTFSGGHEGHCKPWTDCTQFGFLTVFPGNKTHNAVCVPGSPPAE
Experimental: as §1

[5] = molecular target: T4, human CD137 expressed on CHO cells (human, UniProt Q07011 18-255); assay: FMAT/Mirrorball on CHO huCD137 cells
T4 construct: also called CHO huCD137; CHO human CD137 cells
Method in brief: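 His-tagged VH molecules bound to CHO cells expressing human PD-1 or human CD137, with CHO parent cells as control, in PBS pH 7.4, 0.1% BSA, 0.05% sodium azide. Read by FMAT on Mirrorball (ex 488/640 nm); binding taken as FL2 median fluorescence intensity of FL5-gated events.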

[6] = molecular target: T5, human OX40-Fc (R&D Systems cat no. 3388-OX) (human, UniProt P43489 29-216, limits assumed); assay: ELISA, plate-coated human OX40-Fc; legend: No binding (-)
T5 sequence (looked up): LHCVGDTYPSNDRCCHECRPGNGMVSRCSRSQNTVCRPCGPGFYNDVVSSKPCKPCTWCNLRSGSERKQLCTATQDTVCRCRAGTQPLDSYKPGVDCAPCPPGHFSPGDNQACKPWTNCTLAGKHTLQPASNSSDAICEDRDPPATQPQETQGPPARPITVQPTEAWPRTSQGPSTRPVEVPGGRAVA
Experimental: as §1

[7] = molecular target: T6, human GITR-Fc (R&D Systems cat no. 689-GR) (human, UniProt Q9Y5U5 26-161); assay: ELISA, plate coated with 1 ug/ml recombinant protein, anti His-HRP detection
T6 construct: Bought protein; also called Glucocorticoid-induced TNFR-related
T6 sequence (looked up): T3 sequence (looked up)
Experimental: as §1

[8] = molecular target: T7, human HVEM (R&D Systems cat no. HVM-H5258) (human, UniProt Q92956 39-202, limits assumed); assay: as above
T7 construct: Bought protein
T7 sequence (looked up): T1 sequence (looked up)
Experimental: as §1

[9] = molecular target: T8, human CD40 (R&D Systems cat no. CDO-H5253) (human, UniProt P25942 21-193, limits assumed); assay: as above
T8 construct: Bought protein
Experimental: as §1

[10] = molecular target: T9, human OX40-Fc (R&D Systems cat no. 3388-OX) (human, UniProt P43489 29-216); assay: as above
T9 construct: Bought protein
T9 sequence (looked up): T5 sequence (looked up)
Experimental: as §1

binding result [1]: no binding (tested: 1 ug/ml)
binding result [2]: no binding (tested: 1 ug/ml)
Kd [3]: 27.5 nM
koff [3]: 0.00131 s⁻¹
kon [3]: 47800 M⁻¹ s⁻¹
binding result [4]: no binding (tested: 1 ug/ml)
EC50 [5]: 1.73 nM
binding result [6]: no binding (tested: 1 ug/ml)
B1: 003BB172-E01 (VHH)
VHH: EVQLVESGGGLVQPGGSLRLSCAASGFTFSNYGMHWVRQAPGKRLEWVAVISNDGNTKTYADSVKGRFTISRDNSKNMLYLQMTSLRTEDTAVYYCAQDETTTVTASYYFDYWGQGTLVTVSS
notes: also called 003BB1172-E01

binding result [7]: no binding (tested: 1 ug/ml)
binding result [8]: no binding (tested: 1 ug/ml)
binding result [9]: no binding (tested: 1 ug/ml)
binding result [10]: no binding (tested: 1 ug/ml)
B2: 003BB172-E01 (VHH)
VH: B1 VHH
notes: Human VH single domain antibody (Humabody), monovalent, His-tagged in the assays; also called 003BB1172-E01; not shown: C-terminal 6xHIS tag

binding result [1]: no binding (tested: 1 ug/ml)
binding result [2]: no binding (tested: 1 ug/ml)
Kd [3]: 25.9 nM
koff [3]: 0.00159 s⁻¹
kon [3]: 61300 M⁻¹ s⁻¹
binding result [4]: no binding (tested: 1 ug/ml)
EC50 [5]: 1.29 nM
binding result [6]: no binding (tested: 1 ug/ml)
B3: 003BB172-E01-14 (VHH)
VHH: B1 VHH with L11V, G16R, R44G, M78T, T84N, T88A
notes: Human VH single domain antibody, monovalent

binding result [7]: no binding (tested: 1 ug/ml)
binding result [8]: no binding (tested: 1 ug/ml)
binding result [9]: no binding (tested: 1 ug/ml)
binding result [10]: no binding (tested: 1 ug/ml)
B4: 003BB172-E01-14 (VHH)
VH: B1 VHH with L11V, G16R, R44G, M78T, T84N, T88A
notes: Human VH single domain antibody, His-tagged in the assays; not shown: C-terminal 6xHIS tag
